# Reference: publication doi:10.1101/591909
# Molecular target: AP2M (UniProt P84091)
# Assay: cell-free ELISA, antibody-captured AP2M, biotinylated peptide
# Details: reference: unphosphorylated control peptide; sites Y816
substance,measurement,value
"TRKB (C-terminal peptide) C-terminus, last 26 aa (from UniProt Q63604) pY816 peptide",binding against the reference,stronger
